Tests used:
[1] = target: T1, Histidine tagged mouse Fn14 extracellular domain (mouse, UniProt Q9CR75 28-80); assay: ELISA with purified His-tagged mouse Fn14; x axis 'Log (c)' without unit, µg/ml by the legend
T1 construct: extracellular domain; also called mFn14; not shown: (His)6 tag from pET-15b
T1 sequence (looked up): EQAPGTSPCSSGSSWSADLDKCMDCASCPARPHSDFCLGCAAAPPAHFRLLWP

[2] = target: phage expressed hFn14 mutant L65A (human, UniProt Q9NP84 28-77); assay: phage ELISA (Method 2): antibody coated on the plate, 10-fold dilutions of phage displaying hFn14 L65A; biotin anti-M13 antibody, streptavidin-HRP, TMB, OD 450 nm; x axis = dilution of phage
Text: For mutants P59A and F63A, binding was detected using HRP-conjugated anti-M13-phage polyclonal IgG and TMB substrate. For all other mutants binding was detected using Biotin-conjugated anti-M13-phage monoclonal antibody followed by HRP-conjugated Streptavidin and TMB substrate. Optical density at 450 nm was quantified using a Spectramax spectrophotometer. Error bars for each dilution represent the standard deviation of duplicate assays. FIG. 27A wild type Fn14, FIG. 27B W42A, FIG. 27C S54A, FIG. 27D A57G, FIG. 27E P59A, FIG. 27F S61A, FIG. 27G F63A, FIG. 27H L65A. In all cases error bars represent the standard deviation. X axis=dilution of phage. Methods according to Epitope mapping using phage expressed Fn14—Method 2
The wells of Maxisorp immunoplates (Nunc) were coated overnight at 4° C. with the target monoclonal antibodies or recombinant Tweak-Fc at a concentration of 1.5 μg/ml in PBS. mAb 5G8 was used as a negative control for ELISA plates coated with tested antibodies. […] 10-fold serial dilutions of phage were made using PBS solution and phage dilutions were added to the coated, blocked ELISA plates for 1 hour, shaking at room temperature. Phage was subsequently removed from the wells and the ELISA plates were washed three times with PBS/0.05% Tween 20. […]

[3] = target: phage expressed hFn14 mutant D62A (human, UniProt Q9NP84 28-77); assay: phage ELISA (Method 2): antibody coated on the plate, 10-fold dilutions of phage displaying hFn14 D62A; biotin anti-M13 antibody, streptavidin-HRP, TMB, OD 450 nm; x axis = dilution of phage
Text: ELISAs showing the reactivity of mutant hFn14 phage constructs with the anti-Fn14 monoclonal antibodies CRCBT-06-001, CRCBT-06-002, CRCBT-06-004 compared to ITEM-1 and ITEM-4. Binding was detected using Biotin-conjugated anti-M13-phage monoclonal antibody followed by HRP-conjugated Streptavidin and TMB substrate. Optical density at 450 nm was quantified using a Spectramax spectrophotometer. Error bars for each dilution represent the standard deviation of duplicate assays. FIG. 28A L46A, FIG. 28B D51A and FIG. 28C D62A. In all cases error bars represent the standard deviation. X axis=dilution of phage. Methods according to Epitope mapping using phage expressed Fn14—Method 2.
The wells of Maxisorp immunoplates (Nunc) were coated overnight at 4° C. with the target monoclonal antibodies or recombinant Tweak-Fc at a concentration of 1.5 μg/ml in PBS. mAb 5G8 was used as a negative control for ELISA plates coated with tested antibodies. […] 10-fold serial dilutions of phage were made using PBS solution and phage dilutions were added to the coated, blocked ELISA plates for 1 hour, shaking at room temperature. […]
Method A: HRP-conjugated anti-M13-phage antibody (GE Healthcare) at a 1/5000 dilution in PBS was then added to the wells of the ELISA plates for 1 hour, shaking at room temperature. […] Optical density at 450 nm was quantified using a Spectramax absorbance spectrophotometer.

[4] = target: phage-displayed hFn14 mutant T33N (human, UniProt Q9NP84 28-77); assay: phage ELISA, antibody on plate
[5] = target: phage-displayed hFn14 mutant A34S (human, UniProt Q9NP84 28-77); assay: phage ELISA, antibody on plate
[6] = target: phage-displayed hFn14 mutant R56P (human, UniProt Q9NP84 28-77); assay: phage ELISA, antibody on plate
[7] = target: phage-displayed hFn14 mutant L77M (human, UniProt Q9NP84 28-76); assay: phage ELISA, antibody on plate
[8] = target: phage-displayed hFn14 mutant R38S (human, UniProt Q9NP84 28-77); assay: phage ELISA, antibody on plate

Measured: binding result

Chain of phage-displayed hFn14 mutant R56P (Q9NP84 28-77 R56P): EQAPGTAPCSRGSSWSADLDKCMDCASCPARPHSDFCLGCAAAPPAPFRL
Chain of phage-displayed hFn14 mutant A34S (Q9NP84 28-77 A34S): as the sequence (Q9NP84 28-77 R56P) above, with A7S, P29R counted along it
Chain of phage-displayed hFn14 mutant R38S (Q9NP84 28-77 R38S): as the sequence (Q9NP84 28-77 R56P) above, with R11S, P29R counted along it
Chain of phage-displayed hFn14 mutant T33N (Q9NP84 28-77 T33N): as the sequence (Q9NP84 28-77 R56P) above, with T6N, P29R counted along it
Chain of phage-displayed hFn14 mutant L77M (Q9NP84 28-77 L77M): as the sequence (Q9NP84 28-77 R56P) above, with P29R, L50M counted along it

B1: CRCBT-06-002 (antibody, IgG1, V domains shown)
VH: EVKLQQSGGGLVQPGGSMKLSCVASGFTFSYYWMNWVRQSPEQGLEWIAEIRLQSNDYPTHYAESVKGRFTISRDDSKNSVYLQMNNLRPEDTGIYYCACRYADYFDHWGQGTTLTVSS
VL: DTVLTQSPASLVVSLGQRATISCRASQSVSTSDYSYIHWYQQKPGQPPKFLIKYASNRDSGVPARFSGSGSGTDFTLNIHPVEEDDTAIYYCQHSWEIPPTFGAGTKLELQR
binds: [1] | [2] | [3] | [4] | [5] | [6] | [7] | [8]

B2: CRCBT-06-001 (antibody, IgG2b, V domains shown)
VH: QVQLQQSGGGLVQPGGSMKLSCIASGFTFSSYWMSWVRQSPEKGLEWVAEIRSKSDNYATHYAESVKGKFTISRDDSKSRFFLQMNNLRAEDTGIYYCSSTYADYFHYWGQGTDLTVSS
VL: DIVMTQTPASLAVSLGQRATISCRASQSVSTSTYSYMHWYQQKPGQPPKLLIKYASSLESGVPARFSGSGSGTDFTLNIHPVEEDDTATYYCQHSWEIPYTFGGGTKLEIKR
binds: [1] | [2] | [3]

— patent US20200239586A1 (LA TROBE UNIVERSITY, published 2020)
